Measurements: IntAct's records for PubMed 19274086

B1: Serine/threonine-protein kinase STK11 (Mus musculus), Q9WTK7 (parent)
chain: MDVADPEPLGLFSEGELMSVGMDTFIHRIDSTEVIYQPRRKRAKLIGKYLMGDLLGEGSYGKVKEVLDSETLCRRAVKILKKKKLRRIPNGEANVKKEIQLLRRLRHRNVIQLVDVLYNEEKQKMYMVMEYCVCGMQEMLDSVPEKRFPVCQAHGYFRQLIDGLEYLHSQGIVHKDIKPGNLLLTTNGTLKISDLGVAEALHPFAVDDTCRTSQGSPAFQPPEIANGLDTFSGFKVDIWSAGVTLYNITTGLYPFEGDNIYKLFENIGRGDFTIPCDCGPPLSDLLRGMLEYEPAKRFSIRQIRQHSWFRKKHPLAEALVPIPPSPDTKDRWRSMTVVPYLEDLHGRAEEEEEEDLFDIEDGIIYTQDFTVPGQVLEEEVGQNGQSHSLPKAVCVNGTEPQLSSKVKPEGRPGTANPARKVCSSNKIRRLSACKQQ

Variants of: B1
Conditions: with aapk2_human PRKAA2, P54646
Sequence of aapk2_human PRKAA2, P54646 (P54646 whole entry, looked up): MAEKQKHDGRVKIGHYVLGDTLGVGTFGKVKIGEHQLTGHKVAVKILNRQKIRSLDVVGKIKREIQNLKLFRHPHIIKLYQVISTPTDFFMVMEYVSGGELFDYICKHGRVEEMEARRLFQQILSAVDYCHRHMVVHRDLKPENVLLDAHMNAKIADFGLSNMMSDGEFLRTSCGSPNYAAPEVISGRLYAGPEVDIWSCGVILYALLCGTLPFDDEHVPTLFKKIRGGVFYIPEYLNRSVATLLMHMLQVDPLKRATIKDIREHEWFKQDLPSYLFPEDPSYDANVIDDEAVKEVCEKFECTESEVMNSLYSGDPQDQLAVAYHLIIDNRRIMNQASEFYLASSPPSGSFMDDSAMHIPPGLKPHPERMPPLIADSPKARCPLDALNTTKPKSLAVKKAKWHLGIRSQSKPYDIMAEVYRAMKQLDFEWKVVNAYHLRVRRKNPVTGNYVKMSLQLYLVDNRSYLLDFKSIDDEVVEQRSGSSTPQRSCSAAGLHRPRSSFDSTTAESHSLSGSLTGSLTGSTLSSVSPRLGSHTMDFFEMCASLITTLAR

Variant | effect of a mutation on the interaction
D194A | disrupting interaction strength
S431D | decreasing interaction strength
S431A | decreasing interaction strength
